Mean fluorescence of the cell population (DNP-AF3-mediated α-DNP antibody endocytosis, HepG2, flow cytometry); about 1.31e6 without inhibitor (mean fluorescence) and percent decrease of ternary complex formation data for 1 substance are collected here from US20250269043A1, “TARGETED BIFUNCTIONAL DEGRADERS” (YALE UNIVERSITY, priority 2019, published 2025).

The target of assay [1] is asialoglycoprotein receptor on the surface of immortalized human hepatocyte HepG2 cells (human) (UniProt P07306). Briefly: cell-based or functional assay.
Chain of asialoglycoprotein receptor on the surface of immortalized human hepatocyte HepG2 cells (human) (P07306 whole entry, chain 1 of 2): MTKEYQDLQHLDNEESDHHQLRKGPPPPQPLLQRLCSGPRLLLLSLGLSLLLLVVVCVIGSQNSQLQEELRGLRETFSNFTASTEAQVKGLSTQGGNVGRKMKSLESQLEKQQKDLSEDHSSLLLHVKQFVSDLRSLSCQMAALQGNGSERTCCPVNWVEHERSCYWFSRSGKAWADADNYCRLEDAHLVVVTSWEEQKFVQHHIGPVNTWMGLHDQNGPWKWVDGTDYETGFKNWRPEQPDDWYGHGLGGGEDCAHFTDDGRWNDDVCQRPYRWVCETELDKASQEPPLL
Chain of asialoglycoprotein receptor on the surface of immortalized human hepatocyte HepG2 cells (human) (P07307 whole entry, chain 2 of 2, further chain): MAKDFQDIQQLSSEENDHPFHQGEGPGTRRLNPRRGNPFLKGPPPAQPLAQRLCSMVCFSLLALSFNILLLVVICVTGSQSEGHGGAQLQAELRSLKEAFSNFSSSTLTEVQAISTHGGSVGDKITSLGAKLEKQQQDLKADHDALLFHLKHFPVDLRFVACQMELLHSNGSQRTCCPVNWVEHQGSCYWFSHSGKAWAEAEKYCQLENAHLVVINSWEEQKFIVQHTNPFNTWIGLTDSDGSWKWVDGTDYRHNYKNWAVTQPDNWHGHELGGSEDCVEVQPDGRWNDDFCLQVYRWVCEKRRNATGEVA
Assay [2] shares this target. Briefly: flow cytometry competition on HepG2 cells: ASOR against DNP-AF3 (40 nM)-mediated association of α-DNP antibody (100 nM) with ASGPR.

Substance asialoorosomucoid (ligand) yielded a mean fluorescence of the cell population (DNP-AF3-mediated α-DNP antibody endocytosis, HepG2, flow cytometry); about 1.31e6 without inhibitor (mean fluorescence) in assay [1] of 466000. The percent decrease of ternary complex formation at 2.38 µM ASOR in assay [2] amounted to 70%.
